Measured values: patent publication US20080206232A1

Tests used:
LXRα = assay: cell-based or functional assay
SREBP1c = assay: cell-based or functional assay

| Substance | promoter activity of ABCA1-luc in transfected H2.35 hepatoma cells (LXRα) | luciferase activity of the FAS promoter reporter (FAS-700 luc) in transfected H2.35 hepatoma cells (SREBP1c) | luciferase activity of 4×LXRE-luc in transfected H2.35 hepatoma cells, with LXRα/RXR and LXR ligand (LXRα) |
| --- | --- | --- | --- |
| Flag-PGC-1α | 2 to 3 fold | – | – |
| Flag-PGC-1β (from UniProt Q8VHJ7 1-1014) | 2 to 3 fold | 17 fold | > 240 fold |
